Measured values taken from patent US20120316071A1 (published 2012).
Residue numbers refer to the chain shown, from its start. Names may count otherwise. Values belong to the binder of their own block, whether it stands above or below them.

How the values were obtained:
[1] = target: T1, Recombinant Human DLL4 (delta-like protein 4) (human, UniProt Q9NR61 27-529); experiment: ECL (MSD) 96-well plate assay; plate coated with 15 µg/mL DLL4; Fab 0.004 µM
T1 construct: Bought recombinant protein (R&D Systems Cat#1506-D4/CF); also called rHuman DLL4; Delta-like 4

[2] = target: T1, Recombinant Human DLL4 (delta-like …); experiment: ECL (MSD) 96-well plate assay; plate coated with 30 µg/mL DLL4; Fab 0.02 µM
[3] = target: T1, Recombinant Human DLL4 (delta-like …); experiment: ECL (MSD) multispot assay; Fab 0.1 µM
[4] = target: T1, Recombinant Human DLL4 (delta-like …); experiment: ECL (MSD) multispot assay; Fab 0.01 µM
[5] = target: T2, rHuman HGF R/c-MET/Fc Chimera, CF (R&D Systems Cat#358-MT/CF) (human, UniProt P08581 25-932); experiment: ECL Multispot (MSD), antigen spotted on plate, Fab 0.1 uM;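 further: ratio compares each antigen's electrochemiluminescence to the blank within the same well, with a ratio of at least 4 counted as a binding Fab hit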
T2 construct: Bought recombinant Fc chimera; also called HGF R/Fc; not shown: Fc of the bought R&D Systems chimera

[6] = target: T3, Recombinant Human DLL4 (R&D Systems Cat#1506-D4/CF) (human, UniProt Q9NR61 27-524); experiment: as above
T3 construct: Bought recombinant protein; also called delta-like protein 4; rHuman DLL4

[7] = target: T4, rHuman Erythropoietin R/Fc Chimera, CF (R&D Systems Cat#963-ER) (human, UniProt P19235 25-250); experiment: as above
T4 construct: Bought recombinant Fc chimera; also called EPO R; EPO R/Fc; not shown: Fc of the bought R&D Systems chimera
T4 sequence (looked up): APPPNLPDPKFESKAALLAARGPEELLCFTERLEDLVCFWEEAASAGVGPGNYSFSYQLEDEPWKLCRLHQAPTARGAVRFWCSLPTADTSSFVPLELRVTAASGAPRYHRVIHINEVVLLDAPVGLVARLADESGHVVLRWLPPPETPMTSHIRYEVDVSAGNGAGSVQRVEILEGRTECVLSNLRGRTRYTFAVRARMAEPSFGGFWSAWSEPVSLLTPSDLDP

[8] = target: T5, rHuman IGF-1 sR, CF (R&D Systems Cat#391-GR) (human, UniProt P08069 31-932); experiment: as above
T5 construct: Bought recombinant soluble receptor; also called insulin-like growth factor-1 soluble receptor

[9] = target: T6, rHuman Notch-1/Fc Chimera, CF (R&D Systems Cat#3647-TK) (human, UniProt P46531 19-526); experiment: as above
T6 construct: Bought recombinant Fc chimera; not shown: Fc of the bought R&D Systems chimera

[10] = target: T7, rHuman P-Cadherin/Fc Chimera, CF (R&D Systems Cat#861-PC) (human, UniProt P22223 108-654); experiment: as above
T7 construct: Bought recombinant Fc chimera; not shown: Fc of the bought R&D Systems chimera

[11] = target: T8, rHuman ErbB2/Fc Chimera, CF (R&D Systems Cat#1129-ER) (human, UniProt P04626 23-652); experiment: as above
T8 construct: Bought recombinant Fc chimera; not shown: Fc of the bought R&D Systems chimera

[12] = target: T9, rHuman EGF R/Fc Chimera, CF (R&D Systems Cat#344-ER) (human, UniProt P00533 25-645); experiment: as above
T9 construct: Bought recombinant Fc chimera; not shown: Fc of the bought R&D Systems chimera

[13] = target: T10, rHuman CD44/Fc Chimera, CF (R&D Systems Cat#3660-CD) (human, UniProt P16070 21-220); experiment: as above
T10 construct: Bought recombinant Fc chimera; not shown: Fc of the bought R&D Systems chimera

[14] = target: T2, rHuman HGF R/c-MET/Fc Chimera, CF (R&D …); experiment: ECL Multispot (MSD), antigen spotted on plate, Fab 0.01 uM;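 further: electrochemiluminescence of each antigen spot divided by the blank of the same well, with a value of 4 or above scoring the Fab as a binding hit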
[15] = target: T3, Recombinant Human DLL4 (R&D Systems …); experiment: as above
[16] = target: T5, rHuman IGF-1 sR, CF (R&D Systems …); experiment: as above
[17] = target: T9, rHuman EGF R/Fc Chimera, CF (R&D …); experiment: as above
[18] = target: T11, Recombinant Human DLL4 (R&D Systems Cat#1506-D4/CF) (human, UniProt Q9NR61 27-524); experiment: ECL (MSD) binding assay, immobilised DLL4, repeat experiment
T11 construct: Bought recombinant protein; also called delta-like protein 4; rHuman DLL4

[19] = target: T12, rHuman IGF-1 sR (insulin-like growth factor-1 soluble receptor), CF (R&D Systems Cat#391-GR) (human, UniProt P08069 31-932); experiment: ECL Multispot (MSD) assay, antigen spotted on plate, 10 nM Fab;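 further: purified Fab bound to antigen spots for 1 h at 20 °C, then TAG detection antibody, electrochemiluminescence compared with each well's blank, ratio of 4 or more marks a hit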
T12 construct: Bought recombinant soluble receptor

[20] = target: T13, rHuman EGF R/Fc Chimera, CF (R&D Systems Cat#344-ER) (human, UniProt P00533 25-645); experiment: as above
T13 construct: Bought recombinant protein

[21] = target: T14, rHuman CD44/Fc Chimera, CF (R&D Systems Cat#3660-CD) (human, UniProt P16070 21-220); experiment: as above
T14 construct: Bought recombinant protein

[22] = target: T15, rHuman HGF R/c-MET/Fc Chimera, CF (R&D Systems Cat#358-MT/CF) (human, UniProt P08581 25-932); experiment: as above
T15 construct: Bought recombinant protein; also called HGF R/Fc

[23] = target: T16, rHuman Notch-1/Fc Chimera, CF (R&D Systems Cat#3647-TK) (human, UniProt P46531 19-526); experiment: as above
T16 construct: Bought recombinant protein

[24] = target: T17, rHuman ErbB2/Fc Chimera, CF (R&D Systems Cat#1129-ER) (human, UniProt P04626 23-652); experiment: as above
T17 construct: Bought recombinant protein

[25] = target: T18, rHuman P-Cadherin/Fc Chimera, CF (R&D Systems Cat#861-PC) (human, UniProt P22223 108-654); experiment: as above
T18 construct: Bought recombinant protein

[26] = target: T19, rHuman Erythropoietin R/Fc Chimera, CF (R&D Systems Cat#963-ER) (human, UniProt P19235 25-250); experiment: as above
T19 construct: Bought recombinant protein; also called EPO R; EPO R/Fc
T19 sequence (looked up): T4 sequence (looked up)

[27] = target: T11, Recombinant Human DLL4 (R&D Systems …); experiment: as above
[28] = target: T11, Recombinant Human DLL4 (R&D Systems …); experiment: ECL (MSD) binding assay, DLL4 signal divided by blank, repeat experiment

- Signal/Noise [1]: 134
- Signal/Noise [2]: 76.5
- ECL signal [3]: 27100
- Signal/Noise [3]: 195
- ECL signal [4]: 4280
- Signal/Noise [4]: 15.3
B1: Fab VH1-46_IGHD6-6*01_IGHJ1*01 S104F & L6_IGKJ1*01 (Fab, V domains shown)
VH: QVQLVQSGAEVKKPGASVKVSCKASGYTFTSYYMHWVRQAPGQGLEWMGIINPSGGSTSYAQKFQGRVTMTRDTSTSTVYMELSSLRSEDTAVYYCAREEYSSFSAEYFQHWGQGTLVTVSS
VL: not shown
notes: Fab; The VH was cloned into Plasmid A (CH1, His6 and Flag tags) and the kappa VL into Plasmid C (kappa CL); expressed in E. coli

- ECL signal/noise ratio [5]: 1.3
- ECL signal/noise ratio [6]: 40.9
- ECL signal/noise ratio [7]: 1.2
- ECL signal/noise ratio [8]: 1.6
- ECL signal/noise ratio [9]: 1.7
- ECL signal/noise ratio [10]: 1.6
- ECL signal/noise ratio [11]: 1.2
- ECL signal/noise ratio [12]: 1.2
- ECL signal/noise ratio [13]: 1.8
B2: Fab VH1-46_IGHD6-6*01_IGHJ1*01 & L6_IGKJ1*01 (Fab, V domains shown)
VH: B1 VH with F104S
VL: not shown
notes: Germline 'Hit' Fab made in E. coli; The heavy chain variable region was cloned into Plasmid A (CH1, His6 and Flag tags) and the kappa light chain variable region into Plasmid C (kappa CL); also called Parent; parental

- ECL signal/noise ratio [14]: 0.6
- ECL signal/noise ratio [15]: 15.3
- ECL signal/noise ratio [16]: 0.6
- ECL signal/noise ratio [17]: 0.8
- ECL signal/noise ratio [5]: 1.6
- ECL signal/noise ratio [6]: 195
- ECL signal/noise ratio [8]: 1.7
- ECL signal/noise ratio [12]: 2
B3: Fab VH1-46_IGHD6-6*01_IGHJ1*01 S104F & L6_IGKJ1*01 (Fab, V domains shown)
VH: B1 VH
VL: not shown
notes: Fab made in E. coli; The heavy chain variable region was cloned into Plasmid A (CH1, His6 and Flag tags) and the kappa light chain variable region into Plasmid C (kappa CL)

- ECL signal [18]: 181000
- ECL signal [19]: 408
- ECL signal [20]: 389
- ECL signal [21]: 471
- ECL signal [22]: 427
- ECL signal [23]: 432
- ECL signal [24]: 411
- ECL signal [25]: 381
- ECL signal [26]: 480
- ECL signal [27]: 140000
- Signal/Noise [28]: 404
B4: Fab VH1-46_IGHD6-6*01_IGHJ1*01 S102A/S103P/S104F/H111F T28A & L6_IGKJ1*01 (Fab, V domains shown)
VH: B1 VH with T28A, S102A, S103P, H111F
VL: not shown
notes: Fab as for m1 (CH1 with His6/Flag tags, kappa CL); also called APFF T28A

- ECL signal [18]: 178000
- ECL signal [19]: 356
- ECL signal [20]: 427
- ECL signal [21]: 439
- ECL signal [22]: 413
- ECL signal [23]: 270
- ECL signal [24]: 272
- ECL signal [25]: 275
- ECL signal [26]: 428
- ECL signal [27]: 140000
- Signal/Noise [28]: 503
B5: Fab VH1-46_IGHD6-6*01_IGHJ1*01 S102A/S103P/S104F/H111F T30A & L6_IGKJ1*01 (Fab, V domains shown)
VH: B1 VH with T30A, S102A, S103P, H111F
VL: not shown
notes: Fab as for m1 (CH1 with His6/Flag tags, kappa CL); also called APFF T30A

- ECL signal [18]: 59500
- ECL signal [19]: 308
- ECL signal [20]: 372
- ECL signal [21]: 294
- ECL signal [22]: 345
- ECL signal [23]: 244
- ECL signal [24]: 394
- ECL signal [25]: 383
- ECL signal [26]: 373
- ECL signal [27]: 27000
- Signal/Noise [28]: 225
B6: Fab VH1-46_IGHD6-6*01_IGHJ1*01 S102A/S103P/S104F/H111F Y33A & L6_IGKJ1*01 (Fab, V domains shown)
VH: B1 VH with Y33A, S102A, S103P, H111F
VL: not shown
notes: Fab as for m1 (CH1 with His6/Flag tags, kappa CL); also called APFF Y33A

- Signal/Noise [1]: 79.2
- Signal/Noise [2]: 24.9
- ECL signal [3]: 20100
- Signal/Noise [3]: 88.3
- ECL signal [4]: 4160
- Signal/Noise [4]: 27
B7: Fab VH1-46_IGHD6-6*01_IGHJ1*01 S104H & L6_IGKJ1*01 (Fab, V domains shown)
VH: B1 VH with F104H
VL: not shown
notes: as for B1

- ECL signal [18]: 176000
- ECL signal [19]: 405
- ECL signal [20]: 394
- ECL signal [21]: 379
- ECL signal [22]: 398
- ECL signal [23]: 333
- ECL signal [24]: 207
- ECL signal [25]: 255
- ECL signal [26]: 454
- ECL signal [27]: 138000
- Signal/Noise [28]: 530
B8: Fab VH1-46_IGHD6-6*01_IGHJ1*01 S102A/S103P/S104F/H111F S31A & L6_IGKJ1*01 (Fab, V domains shown)
VH: B1 VH with S31A, S102A, S103P, H111F
VL: not shown
notes: Fab as for m1 (CH1 with His6/Flag tags, kappa CL); also called APFF S31A
